Here are results for one molecule from publication PMC2113082 (The Journal of Cell Biology, 1984).

The assay deals with von Willebrand factor (human, UniProt P04275 764-2813). The assay can be described thus: ELISA. (In general: ELISA stands for enzyme-linked immunosorbent assay.)
Sequence of von Willebrand factor (P04275 764-2813): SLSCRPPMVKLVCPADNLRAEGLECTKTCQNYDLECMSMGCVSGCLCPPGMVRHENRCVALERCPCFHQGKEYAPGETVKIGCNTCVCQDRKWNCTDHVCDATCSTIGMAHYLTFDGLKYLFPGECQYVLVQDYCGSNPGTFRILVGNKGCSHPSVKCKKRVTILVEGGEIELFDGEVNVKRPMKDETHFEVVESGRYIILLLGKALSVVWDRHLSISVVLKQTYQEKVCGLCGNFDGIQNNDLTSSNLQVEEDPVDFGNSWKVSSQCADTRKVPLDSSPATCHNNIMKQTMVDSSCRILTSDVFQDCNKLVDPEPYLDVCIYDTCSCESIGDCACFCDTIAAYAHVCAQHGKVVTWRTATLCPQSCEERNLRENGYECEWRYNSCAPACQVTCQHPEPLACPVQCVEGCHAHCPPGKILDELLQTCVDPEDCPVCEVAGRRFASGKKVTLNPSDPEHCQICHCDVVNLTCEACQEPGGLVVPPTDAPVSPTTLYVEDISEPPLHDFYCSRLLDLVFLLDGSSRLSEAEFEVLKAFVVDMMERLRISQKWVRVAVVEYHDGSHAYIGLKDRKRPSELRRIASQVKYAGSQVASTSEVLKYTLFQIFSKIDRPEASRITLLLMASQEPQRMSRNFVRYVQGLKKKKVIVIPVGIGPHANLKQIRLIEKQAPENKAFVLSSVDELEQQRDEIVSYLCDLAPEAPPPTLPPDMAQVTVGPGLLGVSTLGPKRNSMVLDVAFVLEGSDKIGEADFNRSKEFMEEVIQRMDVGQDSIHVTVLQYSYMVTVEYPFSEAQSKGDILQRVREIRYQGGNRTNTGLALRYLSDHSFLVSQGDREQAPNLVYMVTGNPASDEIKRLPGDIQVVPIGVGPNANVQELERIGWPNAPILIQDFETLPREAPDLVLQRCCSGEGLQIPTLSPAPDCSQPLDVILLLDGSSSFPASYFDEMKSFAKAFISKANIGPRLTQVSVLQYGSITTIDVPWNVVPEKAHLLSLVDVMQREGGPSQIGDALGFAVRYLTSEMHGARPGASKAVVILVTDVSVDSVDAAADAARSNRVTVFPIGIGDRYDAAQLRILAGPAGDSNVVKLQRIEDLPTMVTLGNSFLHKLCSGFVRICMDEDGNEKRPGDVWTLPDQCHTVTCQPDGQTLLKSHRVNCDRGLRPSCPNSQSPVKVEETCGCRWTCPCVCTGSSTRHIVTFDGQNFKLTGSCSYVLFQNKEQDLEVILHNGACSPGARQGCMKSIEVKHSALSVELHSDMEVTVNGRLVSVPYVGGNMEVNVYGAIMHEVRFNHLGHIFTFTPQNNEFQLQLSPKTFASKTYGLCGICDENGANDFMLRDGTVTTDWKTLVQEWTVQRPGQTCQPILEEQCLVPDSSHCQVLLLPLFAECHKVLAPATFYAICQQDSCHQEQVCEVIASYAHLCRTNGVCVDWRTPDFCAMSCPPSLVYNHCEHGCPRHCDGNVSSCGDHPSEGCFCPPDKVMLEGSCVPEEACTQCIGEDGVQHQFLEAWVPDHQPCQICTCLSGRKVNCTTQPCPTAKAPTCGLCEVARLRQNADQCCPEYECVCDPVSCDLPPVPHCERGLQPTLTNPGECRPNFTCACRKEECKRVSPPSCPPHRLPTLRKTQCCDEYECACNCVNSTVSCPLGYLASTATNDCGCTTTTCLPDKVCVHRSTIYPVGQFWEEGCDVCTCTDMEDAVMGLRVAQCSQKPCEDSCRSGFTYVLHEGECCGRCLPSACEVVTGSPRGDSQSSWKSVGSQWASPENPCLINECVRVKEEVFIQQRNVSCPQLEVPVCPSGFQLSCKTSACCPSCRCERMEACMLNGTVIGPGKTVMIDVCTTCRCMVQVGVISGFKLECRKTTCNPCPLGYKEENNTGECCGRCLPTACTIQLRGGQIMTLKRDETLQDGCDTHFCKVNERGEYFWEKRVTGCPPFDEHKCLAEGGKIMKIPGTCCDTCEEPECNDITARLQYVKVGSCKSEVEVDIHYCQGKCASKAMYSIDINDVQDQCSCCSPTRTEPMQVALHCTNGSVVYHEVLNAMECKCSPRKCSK

B1: Phosphorylase b (enzyme, rabbit, UniProt P00489 1-843, looked up)
chain: MSRPLSDQEKRKQISVRGLAGVENVTELKKNFNRHLHFTLVKDRNVATPRDYYFALAHTVRDHLVGRWIRTQQHYYEKDPKRIYYLSLEFYMGRTLQNTMVNLALENACDEATYQLGLDMEELEEIEEDAGLGNGGLGRLAACFLDSMATLGLAAYGYGIRYEFGIFNQKICGGWQMEEADDWLRYGNPWEKARPEFTLPVHFYGRVEHTSQGAKWVDTQVVLAMPYDTPVPGYRNNVVNTMRLWSAKAPNDFNLKDFNVGGYIQAVLDRNLAENISRVLYPNDNFFEGKELRLKQEYFVVAATLQDIIRRFKSSKFGCRDPVRTNFDAFPDKVAIQLNDTHPSLAIPELMRVLVDLERLDWDKAWEVTVKTCAYTNHTVLPEALERWPVHLLETLLPRHLQIIYEINQRFLNRVAAAFPGDVDRLRRMSLVEEGAVKRINMAHLCIAGSHAVNGVARIHSEILKKTIFKDFYELEPHKFQNKTNGITPRRWLVLCNPGLAEIIAERIGEEYISDLDQLRKLLSYVDDEAFIRDVAKVKQENKLKFAAYLEREYKVHINPNSLFDVQVKRIHEYKRQLLNCLHVITLYNRIKKEPNKFVVPRTVMIGGKAAPGYHMAKMIIKLITAIGDVVNHDPVVGDRLRVIFLENYRVSLAEKVIPAADLSEQISTAGTEASGTGNMKFMLNGALTIGTMDGANVEMAEEAGEENFFIFGMRVEDVDRLDQRGYNAQEYYDRIPELRQIIEQLSSGFFSPKQPDLFKDIVNMLMHHDRFKVFADYEEYVKCQERVSALYKNPREWTRMVIRNIATSGKFSSDRTIAQYAREIWGVEPSRQRLPAPDEKIP
B1: the binding result is reported as “binds”.
